This note sets out measurements from paper PMC2880831.

This data set deals with EGR1 (UniProt P18146 1-543). In words: EMSA. (In EMSA bound probe runs differently from free probe, usually more slowly.)
EGR1, sequence (P18146 whole entry): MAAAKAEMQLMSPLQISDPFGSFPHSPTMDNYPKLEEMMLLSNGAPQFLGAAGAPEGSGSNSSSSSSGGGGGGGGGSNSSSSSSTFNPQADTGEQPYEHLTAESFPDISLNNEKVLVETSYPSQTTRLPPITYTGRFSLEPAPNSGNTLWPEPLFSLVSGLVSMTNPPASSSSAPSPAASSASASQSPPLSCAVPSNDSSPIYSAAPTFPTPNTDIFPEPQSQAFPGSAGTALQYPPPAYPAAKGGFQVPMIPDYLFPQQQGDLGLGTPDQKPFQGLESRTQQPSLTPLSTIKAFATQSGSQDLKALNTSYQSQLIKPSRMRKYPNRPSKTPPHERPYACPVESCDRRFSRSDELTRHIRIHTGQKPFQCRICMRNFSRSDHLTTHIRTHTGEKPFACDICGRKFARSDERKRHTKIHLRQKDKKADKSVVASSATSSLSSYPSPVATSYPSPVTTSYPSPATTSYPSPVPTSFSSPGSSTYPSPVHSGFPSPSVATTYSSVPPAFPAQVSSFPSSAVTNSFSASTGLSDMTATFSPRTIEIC

B1: FAP promoter WT -225~-205 (dsDNA)
DNA 1: CAAGAACGCCCCCAAAATCT
DNA 2: AGATTTTGGGGGCGTTCTTG
On to B1, for which the binding result is “binds”.
